Source: paper PMC9765439, “Systems-Wide Dissection of Organic Acid Assimilation in Pseudomonas aeruginosa Reveals a Novel Path To Underground Metabolism” (mBio, 2022)

Key:
[1] = target: the molecule itself; experiment: crystal structure; GltA apo, 20 to 25 mg/mL, sitting drop vapor diffusion, 19°C
[2] = target: the molecule itself; experiment: crystal structure; PrpC apo and oxaloacetate-bound (2.5 mM oxaloacetate) crystals; sitting drop, 100 to 200 mM Bis-Tris pH 5.5, 20 to 30% PEG 3350, 0.1% D-xylose, 19°C

| Protein | stoichiometry N [1] | stoichiometry N [2] |
| --- | --- | --- |
| citrate synthase GltA from Pseudomonas aeruginosa (enzyme, UniProt P14165 1-428, looked up, citrate synthase GltA of Pseudomonas aeruginosa; PCR-amplified ORF of gltA cloned into pET-19m; printed length 429 amino acids; The hexamer is that of the crystal's asymmetric unit; also called GltAPa; citrate (CIT) synthase; source: E. coli, purified (Ni-NTA, His6 tag cleaved with TEV protease); not shown: His6, N-terminal, cleaved) MADKKAQLIIEGSAPVELPVLSGTMGPDVVDVRGLTATGHFTFDPGFMSTASCESKITYIDGDKGVLLHRGYPIEQLAEKSDYLETCYLLLNGELPTAAQKEQFVGTIKNHTMVHEQLKTFFNGFRRDAHPMAVMCGVIGALSAFYHDSLDINNPKHREVSAHRLIAKMPTIAAMVYKYSKGEPMMYPRNDLNYAENFLHMMFNTPCETKPISPVLAKAMDRIFILHADHEQNASTSTVRLAGSSGANPFACIASGIAALWGPAHGGANEAVLRMLDEIGDVSNIDKFVEKAKDKNDPFKLMGFGHRVYKNFDPRAKVMKQTCDEVLQELGINDPQLELAMKLEEIARHDPYFVERNLYPNVDFYSGIILKAIGIPTSMFTVIFALARTVGWISHWQEMLSGPYKIGRPRQLYTGHTQRDFTALKDRG | 6 | – |
| 2-methylcitrate synthase PrpC from Pseudomonas aeruginosa (enzyme, 2-methylcitrate synthase PrpC of Pseudomonas aeruginosa; PCR-amplified ORF of prpC cloned into pET-19m; printed length 376 amino acids, theoretical monomer mass 41.7 kDa; also called PrpCPa; 2-MCS; source: E. coli, purified (Ni-NTA, His6 tag cleaved with TEV protease); not shown: His6, N-terminal, cleaved) MAEAKVLSGAGLRGQVAGQTALSTVGQEGAGLTYRGYDVRDLAAAAIFEEVAYLLLYGELPNKQQLDAYLKKLQGQRDLPQALKEVLERIPKDAHPMDVMRTGASVLGTLEPELSFDQQRDVADRLLAAFPAIMTYWYRFTHEGQRIDCNSDEPTIGGHFLALLHGKKPSELHVKVMNVSLILYAEHEFNASTFTARVCASTLSDLYSCVTGAIGSLRGPLHGGANEAAMELIERFSSPQEATAELLKMLERKDKIMGFGHAIYKDSDPRNEVIKGWSKQLADEVGDKVLFAVSEAIDKTMWEQKKLFPNADFYHASAYHFMGIPTKLFTPIFVCSRTSGWTAHVFEQRANNRIIRPSAEYTGVEQRAFVPLEQR | – | 2 |
